The source of these data is patent US20240025956A1 (MIYAGI PREFECTURAL HOSPITAL ORGANIZATION, published 2024).

In assay [1] the target is T1, mouse IL-2 receptor α (mouse, UniProt P01590 22-268).
T1 construct: whole, on cells; also called mouse IL-2Rα; CD25
T1 sequence (looked up): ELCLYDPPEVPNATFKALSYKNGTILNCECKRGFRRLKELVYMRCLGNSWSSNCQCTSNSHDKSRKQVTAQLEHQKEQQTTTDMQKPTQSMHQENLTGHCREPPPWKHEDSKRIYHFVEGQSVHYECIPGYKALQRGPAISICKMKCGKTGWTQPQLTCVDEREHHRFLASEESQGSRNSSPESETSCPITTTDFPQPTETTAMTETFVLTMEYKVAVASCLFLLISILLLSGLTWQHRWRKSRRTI
The assay can be described thus: NanoLuc on-cell binding, mouse IL-2Rα-expressing 293T, ratio 293Ta/293T, 10 nM. Here is the method:
(§1) Next, IL-2 receptor α binding capability on cells (on-cell receptor binding) was measured. Specifically, 293T cells were obtained from the RIKEN Cell Bank (RCB2202). Human and mouse IL-2 receptor α-expressing 293T (293Ta) was established as cells stably expressing the IL-2 receptor α in 293T through use of lentiviral vectors (pSIN-EF-RfA2-1-human IL-2Ra and pSIN-EF-RfA2-1-mouse IL-2Ra) constructed respectively with human and mouse IL-2 receptor α-chain genes (NCBI Reference Sequence: NM_000417.2 and NM_008367.3) as cassettes. 293T and human or mouse 293Ta were allowed to adhere to a 24 wel cell culture plate (Techno Plastic Products AG, #92424). After that, a suspension (10 nM) of NanoLuc (trademark) luciferase sequence (Promega Corporation, USA)-fused mature stable mutant human MK-4-IL-2 (MK-4, pcDNA4-MK-4-NLuc, corresponding to a comparative example), mature stable mutant human MK-6-IL-2 (MK-6, pcDNA4-MK-6-NLuc), mature stable mutant human IL-2 (MK-14, pcDNA4-MK-14-NLuc, IL-2 positive control), or mature stable mutant human MK-15-IL-2 (MK-15, pcDNA4-MK-15-NLuc) was added, and the mixture was subjected to a reaction by being left at rest at 4° C. for 1 hour. The cells were washed, followed by quantification. The binding capability of mutant IL-2 for the α-subunit is shown as a numerical value for a ratio between amounts bound to 293Ta and 293T (293Ta/293T). […]

Another assay concerns the target T2, human IL-2 receptor α (human, UniProt P01589 22-272).
T2 construct: whole, on cells; also called IL-2Rα; CD25
T2 sequence (looked up): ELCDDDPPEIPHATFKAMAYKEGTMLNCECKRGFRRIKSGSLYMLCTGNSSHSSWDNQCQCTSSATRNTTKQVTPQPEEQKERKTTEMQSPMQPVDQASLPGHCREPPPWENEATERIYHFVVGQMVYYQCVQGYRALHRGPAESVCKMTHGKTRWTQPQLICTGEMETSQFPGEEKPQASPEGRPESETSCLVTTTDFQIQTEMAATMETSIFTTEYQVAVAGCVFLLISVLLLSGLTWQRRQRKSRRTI
The assay can be described thus: NanoLuc on-cell binding, human IL-2Rα-expressing 293T, ratio 293Ta/293T. On the procedure:
as §1

In assay [2] the target is T1, mouse IL-2 receptor α. The assay is described as follows: NanoLuc on-cell binding, mouse IL-2Rα-expressing 293T, ratio 293Ta/293T. On the procedure:
as §1

B1: NanoLuc luciferase sequence-fused mature stable mutant human MK-4-IL-2 (ligand, not shown: large carriers)
chain: APASSSTKKTQLQLEHLLLDLQMILNGINNYKNPALTAMLTFKFYMPKKATELKHLQCLEEELKPLEEVLNLAQSKNFHLRPRDLISNINVIVLELKGSETTFMCEYADETATIVEFLNRWITFAQSIISTLT
notes: also called pcDNA4-MK-4-NLuc
In the case of B1, the binding result in the assay with mouse IL-2 receptor α [1] is reported as “binds”.

B2: NanoLuc luciferase sequence-fused mature stable mutant human MK-6-IL-2 (ligand, not shown: large carriers)
chain: APASSSTKKTQLQLEHLLLDLQMILNGINNYKNPALTAMLTFAFAMPKKATELKHLQCLEEELKPLEEVLNLAQSKNFHLRPRDLISNINVIVLELKGSETTFMCEYADETATIVEFLNRWITFAQSIISTLT
notes: also called pcDNA4-MK-6-NLuc
Consider B2, for which the binding result in the assay with human IL-2 receptor α is recorded as “no binding (tested: 10 nM)”.

B3: NanoLuc luciferase sequence-fused mature stable mutant human MK-15-IL-2 (ligand, not shown: large carriers)
chain: APASSSTKKTQLQLEHLLLDLQMILNGINNYKNPALTAMLTAKFAMPKKATELKHLQCLEEELKPLEEVLNLAQSKNFHLRPRDLISNINVIVLELKGSETTFMCEYADETATIVEFLNRWITFAQSIISTLT
notes: also called pcDNA4-MK-15-NLuc
In the case of B3, the binding result with human IL-2 receptor α and in the assay with mouse IL-2 receptor α [2] was “no binding (tested: 10 nM)” in each case.
